These results are taken from patent publication US20170165337A1 (IMMATICS BIOTECHNOLOGIES, published 2017).

Where no end group is shown, it is not given here. [ ]: non-standard residue; d: D form. pS = N[C@@H](COP(=O)(O)O)C(=O)O

For this assay, the target named is T1, HLA-A*02:01 (human).
T1 construct: MHC class I monomer of the UV-ligand exchange assay; also called peptide-receptive MHC molecules; MHC class I
The assay can be described thus: UV peptide-exchange ELISA. From the text: Candidate peptides for T cell based therapies according to the present invention were further tested for their MHC binding capacity (affinity). The individual peptide-MHC complexes were produced by UV-ligand exchange, where a UV-sensitive peptide is cleaved upon UV-irradiation, and exchanged with the peptide of interest as analyzed. Only peptide candidates that can effectively bind and stabilize the peptide-receptive MHC molecules prevent dissociation of the MHC complexes. To determine the yield of the exchange reaction, an ELISA was performed based on the detection of the light chain (β2m) of stabilized MHC complexes. The assay was performed as generally described in Rodenko et al. (Rodenko et al., 2006).
96 well MAXISorp plates (NUNC) were coated over night with 2 ug/ml streptavidin in PBS at room temperature, washed 4× and blocked forl h at 37° C. in 2% BSA containing blocking buffer. Refolded HLA-A*02:01/MLA-001 monomers served as standards, covering the range of 15-500 ng/ml. Peptide-MHC monomers of the UV-exchange reaction were diluted 100 fold in blocking buffer. Samples were incubated for 1 h at 37° C., washed four times, incubated with 2 ug/ml HRP conjugated anti-β2m for 1 h at 37° C., washed again and detected with TMB solution that is stopped with […]. Absorption was measured at 450 nm. Candidate peptides that show a high exchange yield (preferably higher than 50%, most preferred higher than 75%) are generally preferred for a generation and production of antibodies or fragments thereof, and/or T cell receptors or fragments thereof, as they show sufficient avidity to the MHC molecules and prevent dissociation of the MHC complexes.
As for SLDNGGYYI, the peptide exchange yield fell in the range of 50 to 75%. The figure for AIDAALTSV is 50 to 75%; for VIYTLIHYI it is 50 to 75%; for ALPEVSVEA it is 50 to 75%. With LQALEVLKI the figure was 10 to 20%. As to KLILLDTPLFL, the peptide exchange yield was in the range of 50 to 75%. With NLLDIDAPVTV the figure was 50 to 75%. The figure for SLMLEVPAL is 50 to 75%; for KLGGTPAPA it is 20 to 50%; for QLDEPAPQV it is 20 to 50%. With ALFTF[pS]PLTV [ALFTFJPLTV] the figure was 50 to 75%; with LLLAEAELLTL, 20 to 50%.

SLNIRDFTM returned a peptide exchange yield of 50 to 75%. On to KTLDVDATYEI, for which the peptide exchange yield is 50 to 75%. Turning to LIPEGPPQV, the peptide exchange yield is 50 to 75%. With SIIEGPIIKL the figure was 50 to 75%; with LLFDHLEPMEL, 50 to 75%; with SLLAELHVL, 50 to 75%. The figure for VLPAEFFEV is 50 to 75%; for VVDGMPPGV it is 50 to 75%; for AIPPSFASIFL it is 50 to 75%. With FVYGESVEL the figure was 50 to 75%; with QLLDTYFTL, 50 to 75%; with FMASHLDYL, 50 to 75%. Turning to LLPTAPTTV, the peptide exchange yield was 50 to 75%.

The molecule RLYEITIEV registered a peptide exchange yield of no less than 75%. With ALGEDEITL the figure was 50 to 75%; with KVPAEEVLVAV, 50 to 75%; with KLMNDIADI, 20 to 50%. In turn, SLLAELHVLTV had a peptide exchange yield of no less than 75%. With KLWNVAAPLYL the figure was 50 to 75%; with SLFDSAYGA, 50 to 75%.

QIAELPATSV had a peptide exchange yield of 50 to 75%. In the case of SLNIGDVQL, the peptide exchange yield was 50 to 75%. The figure for ILYNLYDLL is 50 to 75%; for LLIGATMQV it is 50 to 75%; for LLIPVVPGV it is 50 to 75%. The figure for NLDKLWTLV is 20 to 50%; for RLLILENILL it is 50 to 75%; for MLLEHGITLV it is no less than 75%. Molecule SILETVATL displayed a peptide exchange yield of 50 to 75%. With LLLEETEKQAV the figure was 50 to 75%; with NLIKTVIKL, 50 to 75%.

Regarding LLFDKLYLL, the peptide exchange yield fell in the range of 50 to 75%. For the molecule YLLSGDISEA, the peptide exchange yield was 50 to 75%. As for MTAGFSTIAGSV, the peptide exchange yield was in the range of 10 to 20%.

Molecule NLTDVVEKL showed a peptide exchange yield of 50 to 75%. The figure for SLFDQPLSII is 50 to 75%. With LLSEEEYHL the figure was 50 to 75%.

On to KLWEGLTELV, for which the peptide exchange yield is 50 to 75%. With LLPEGGITAI the figure was 50 to 75%. With SALDTITTV the figure was 50 to 75%; with SLIRILQTI, 50 to 75%. The figure for ALLRLLPGL is 50 to 75%; for LLVLIPVYL it is 10 to 20%. With LLLEIGEVGKLFV, the peptide exchange yield fell in the range of 50 to 75%. The figure for LVYEAIIMV is 50 to 75%. With IQDRAVPSL the figure was 20 to 50%; with QILSEIVEA, 20 to 50%.

LLILENILL came in with a peptide exchange yield of 50 to 75%. Consider SIVASLITV, for which the peptide exchange yield is 50 to 75%.
